Assay: soluble on expression in E. coli; label from the status in PepcDB or PDB records

Sequence | soluble on expression in E. coli
MKEFYLTVEQIGDSIFERYIDSNGRERTREVEYKPSLFAHCPESQATKYFDIYGKPCTRKLFANMRDASQWIKRMEDIGLEALGMDDFKLAYLSDTYNYEIKYDHTKIRVANFDIEVTSPDGFPEPSQAKHPIDAITHYDSIDDRFYVFDLLNSPYGNVEEWSIEIAAKLQEQGGDEVPSEIIDKIIYMPFDNEKELLMEYLNFWQQKTPVILTGWNVESFDIPYVYNRIKNIFGESTAKRLSPHRKTRVKVIENMYGSREIITLFGISVLDYIDLYKKFSFTNQPSYSLDYISEFELNVGKLKYDGPISKLRESNHQRYISYNIIDVYRVLQIDAKRQFINLSLDMGYYAKIQIQSVFSPIKTWDAIIFNSLKEQNKVIPQGRSHPVQPYPGAFVKEPIPNRYKYVMSFDLTSLYPSIIRQVNISPETIAGTFKVAPLHDYINAVAERPSDVYSCSPNGMMYYKDRDGVVPTEITKVFNQRKEHKGYMLAAQRNGEIIKEALHNPNLSVDEPLDVDYRFDFSDEIKEKIKKLSAKSLNEMLFRAQRTEVAGMTAQINRKALINGLAGALGNVWFRYYDLRNATAITTFGQMALQWIERKVNEYLNEVCGTEGEAFVLYGDTDSIYVSADKIIDKVGESKFRDTNHWVDFLDKFARERMEPAIDRGFREMCEYMNNKQHLMFMDREAIAGPPLGSKGIGGFWTGKKRYALNVWDMEGTRYAEPKLKIMGLETQKSSTPKAVQKALKECIRRMLQEGEESLQEYFKEFEKEFRQLNYISIASVSSANNIAKYDVGGFPGPKCPFHIRGILTYNRAIKGNIDAPQVVEGEKVYVLPLREGNPFGDKCIAWPSGTEITDLIKDDVLHWMDYTVLLEKTFIKPLEGFTSAAKLDYEKKASLFDMFDFHHHHHH | soluble
MITMLERVPTGIPGFDELCSGGLLRDRSYLVSGPSGSGKTIFAMQYLVNGIEKYNEPGVFVATEERPQHLREHFLTFGWDLEKYEDENMLAIVDATSTKIGLPSDERYIDVRPFDTRSLLDQIITIQDEIGARRAVVDSTTSIGFTISDPAKFRVELLKISTTMEILGLTSILTCEVVEGGGDKISRFGVENFVVEGTIVLYYTRIENTRVRSIEIFKMRGTNHSSKIHPFEITENGIVVYSKEEVFA | not soluble
MAHHHHHHMSRMPSTAARSQPYAFGPEGVMLDGGASEGRQNSVEALLAYCAARVAENPSWRTASWQQAGASNASAFRVPVSPRYLANASYAATGSPLCLRAGRIYLTDARIRAGIAEFQAAGLTVLPLTDDVLSRPSSRASKATVRVVPAMAVLLNGAWIATHFFHLVTDALEALRSAYQTWQDGVLLRIPTQTVLLHQPESNWMDRRGDTHGKMELSAALANAFSSPELARGSPYNSSFLFRSQSRHCAELEANATATMASPPPPRRQSPATVSTLCFCDGLLVTTHRLPVLERDILYGIQDWAARQFRASPYGVNRSVQEMERLRLQHALLSSTSTLWSIGTLTAPALSLSYKPRALFVHRTSRVIANASRYAGWMRAAGFRVEEVYLEKHTAAQQYHLGRYADIVVGMHGLGIGHAMWMERSPPRCRTVIEFRPWVIASMPTQPILILEGAMHYHFVTIPPIDVRFGPSVAHPAEERELLLSSARMVNAFRYPSFTDQIAIYDDERVKGVIADVRQHLERCLPP | not soluble
MLDWEQIFATRSSRMKASEIRELLKLLEQPDIISFAGGIPDPALFPAEEFQQAYAEIFSGAQVNAALQYSVSEGYKPLREWLAGEMDKIGIDCTADNVFIVSGSQQGLDYLGKLFLSPKDTALVTWPTYLGALSAFNAYEPNYDQLNPGGNRTPEAYRETAAKLGGAVKFAYLSADFSNPTGETVDLAGREKVLALADELDIAVIEDAAYQSLRYDGEAVPPIMALDIARSGGIENTRTIYCGSFSKTLAPGLRVGYIVASAPVIRKLVLMKQAADLHSSTINQIAIERVAARGFDKQVAKIKAAYSARRDAMLSALEKYMPKTTSWTKPEGGMFIWVTLPEGMDGAALLAKSIATEKVAFVPGRAFFADGSGTNTLRISFSCANEAMIEEGMKRLGRLITTAQAETTEVLAAI | not soluble
AEKRIGLMLFGKGNIGSRWLELFAREQTTLSARTGFEFILAGVVDSKRSLLNYDGLDASRALAFFNDEAVEQDEESLFLWMRAHPYDDLVVLDVTASEQLADQYLDFASHGFHVISANKLAGASSSDKYRQIHDAFEKTGRHWLYNATVGAGLPVNHTVRDLIDSGDTILGLSGIFSGTLSWLFLQ | not soluble
MGSDKIHHHHHHMQITKRNVELRVDDSLMRVYVASPKPVGVYPGIVFYSDIYQLGSPIIRLANYLAGFGYVVAAPEIFHRLEPIGLVIEPDDLGRMRGNDNARRTAIAEYDADSRAVIDFLKAETTVNANKIGTVGFCIGGHLAFRAAFENEVKASACCYPTGIPSGKLGKGVADTIHRVKEIKGEMLLVLGTLDPHIPESDRQILIKAIEDAKVPHKVVLYEAEHTFMRDDGYRYDSAATTFAWAEIVEFLGRVFAD | not soluble
MSLLQTKPYTFWFITGSQHLYGEDAIEQVRQHSQTMVEKLNKIGELPYTIELKEVLTTPDAIRKMVIAANSDDDCAGMITWMHTFSPAKMWINGLKQLKKPLLHLHTQFNREIPYDDIDMDFMNLNQSAHGDREYGHIGARLNISRKVIVGHWQNNDVQERLGAWMRTAAAFVDGHHLKVARFGDNMREVAVTEGDKVEAQIQFGWSITAFGIGDLVEKMKAVSEDEVRRLFDEYQELYRLSPSILEQDEVKAAVLEQAKMELALKEFLEEGGYTAFTTNFEDLHGMKQLPGLAVQRLMAEGYGFGGEGDWKTAALLRMMKIIADGKGTSFMEDYTYHLAEGNELVLGSHMLEICPTIAANQPEIQVHPLGIGGKEDPARLVFDGADGPALNASLIDLGHRFRLVVNEVEAIKPERDMPKLPVAKVLWKCKPSLSEATEAWIHAGGAHHTVFSFEVTPEQLYDWATLADIEVVFINDKTDVLQFQQQLQWNEAFRRLFKEGHHHHHH | soluble
DLHNMLLTRNQELDVAYQTIRQDLESAGDLMRQLLPVEQQIGATKLSYSYLPCSQLGGDMLGYAALDEQHVAFYVFDVSGHGISSALMSFSIQKTLSRSCGPESVTTDLVEGEYVVSEPNVVVERLNLRYQQTPDSQLYFTIVYAVLNTQTGKLRYCTAGHPKFLWRHQSEATIDMVGDENFIVGALAPMQYKGGEITLEPNDSIWCFSDGVVEARYENEFFSVNRLIANVQSVSGLPFEAQVSSVVESIKRWQVKEELDDDLTLLQLQWFGPNTSTCEGEDD | not soluble
SAFQKAASLLGAPIGHDFCVISLSDLMTPWERIERRILAAAQADFVTAVYNPKSDGRYWQIYRLREIFLREGRSPETPVGYVRQAGREEQEIHITTLAAFDPETVDMFTVVLIGNSQTY | not soluble
MGSDKIHHHHHHNKESTTECQTIDFSTLFDGQPEKIPLKEWAKSIHFVQLETNDSILIGNIRATILHKDKILVHHNNLSLFDLSGKFICNIGSKGGGPTEYSGINNAWTDDEGIHIFDIDNKIKTYNWNGKWIKTEPIPESNIKEVFPLASGNNIKAGYIQNITGNEPHKIYLFKDSTILAKIPYGKSFQKGEMTMVFYNECYPFHADGRTFFKEMFNDTIFSIDNQYQPIPRWYIELGKYKIAEDARYTLTDPRKSVFDNAATLTPIGKWDNKLFFSARANKQNYLFYYDLKEKKSNSIQISYPENSFAIPEEHSFIPKCMSDDGKYLISYEIQENDENPVIILAEK | not soluble
MGSDKIHHHHHHMKKIAILYPAHYEQSSGGAEIQILYLINACKQQNWEIHYIFEDKGTDIKNKENIVLHPLCKMKNYKFCGKGWFLYEKQILRELNAIKPDTIYTRIGSSWIGIATSYAKNHKVKHAHALASDSSVTRKLLGKPLYPLFSQIETYYINKGLVGADVIIAQNVFQQQMLSKRYGKESILVNQMTPSVDESCLQKKYNKIKIIWVANFKELKHPELFVQLAKDLKGHSDRIEMYMCGRSTSKYNNLLQDLNHIDYLNYLGSLDQEQVFDLMNEAHILVNTSEYEGFSNTFVQAWMRKVVVVSMNSNPSDILTSQGIGFLTPNMTNLVATIHKLIEHPEIISELGEKSYQYALENHDLNKNMKKIIEVL | not soluble
MQKPKLGKIKLLSAKEQVAAVLRKAILSRELVEGQEITLEGIAGMVGVSSMPVREAFQILAADGLIKVRPNKGAVVLGINEQTIREHYEIRALLESEAVAKASRPGSDISRIAQVHYAAEKALAENNSAEYSDLNQAFHMEIWNVAGNEKMKMLLCNMWNGLSMGHKVTEEEYAVISIQEHKSILQALELHDETLARQRMREHIIRSMENMLTRYVGDPSA | not soluble
MPVFHTRTIESILEPVAQQISHLVIMHEEGEVDGKAIPDLTAPVAAVQAAVSNLVRVGKETVQTTEDQILKRDMPPAFIKVENACTKLVQAAQMLQSDPYSVPARDYLIDGSRGILSGTSDLLLTFDEAEVRKIIRVCKGILEYLTVAEVVETMEDLVTYTKNLGPGMTKMAKMIDERQQELTHQEHRVMLVNSMNTVKELLPVLISAMKIFVTTKNSKNQGIEEALKNRNFTVEKMSAEINEIIRVLQLTSWDEDAWASKDTEAMKRALASIDSKLNQAKGWLRDPSASPGDAGEQAIRQILDEAGKVGELCAGKERREILGTCKMLGQMTDQVADLRARGQGSSPVAMQKAQQVSQGLDVLTAKVENAARKLEAMTNSKQSIAKKIDAAQNWLADPNGGPEGEEQIRGALAEARKIAELCDDPKERDDILRSLGEISALTSKLADLRRQGKGDSPEARALAKQVATALQNLQTKTNRAVANSRPAKAAVHLEGKIEQAQRWIDNPTVDDRGVGQAAIRGLVAEGHRLANVMMGPYRQDLLAKCDRVDQLTAQLADLAARGEGESPQARALASQLQDSLKDLKARMQEAMTQEVSDVFSDTTTPIKLLAVAATAPPDAPNREEVFDERAANFENHSGKLGATAEKAAAVGTANKSTVEGIQASVKTARELTPQVVSAARILLRNPGNQAAYEHFETMKNQWIDNVEKMTGLVDEAIDTKSLLDASEEAIKKDLDKCKVAMANIQPQMLVAGATSIARRANRILLVAKREVENSEDPKFREAVKAASDELSKTISPMVMDAKAVAGNISDPGLQKSFLDSGYRILGAVAKVREAFQPQEPDFPPPPPDLEQLRLTDELAPPKPPLPEGEVPPPRPPPPEEKDEEFPEQKAGEVINQPMMMAARQLHDEARKWSSKGNDIIAAAKRMALLMAEMSRLVRGGSGTKRALIQCAKDIAKASDEVTRLAKEVAKQCTDKRIRTNLLQVCERIPTISTQLKILSTVKATMLGRTNISDEESEQATEMLVHNAQNLMQSVKETVREAEAASIKIRTDAGFTLRWVRKTPWYQ | soluble
MGSDKIHHHHHHMNQVTTYLWETHLPGGSHWSGVVRRGTTLRLTDVSGGANAAVLFYNLEEKLERYNMADTLKTQHTFCLTKGHACHSDMGRIFCCITEDTAGWHDTVCGLSDAELIQQKYGTGRYQELRNDMYRNGLDGMLVELGKWGLGRRDVVSNINFFSKVTANSVGELQFHVSHSKAGDHVDLAFAMDTLVVLSAAPHPLDPAATYRPGAVNLAVFPSTPAVTGACAHIAENARGLENTRRLYAYGGVK | not soluble
MKVETCVYSGYKIHPGHGKRLVRTDGKVQIFLSGKALKGAKLRRNPRDIRWTVLYRIKNKKGTHGQEQVTRKKTKKSVQVVNRAVAGLSLDAILAKRNQTEDFRRQQREQAAKIAKDANKAVRAAKAAANKEKKASQPKTQQKTAKNVKTAAPRVGGKR | not soluble
MKKHGVLNSEIAAVLASLGHTDTVVIADCGLPIPDGVKRIDLAVEIGKPSFLEVLQVVADDMAIEKVTLAEEVIINNAEVNKEIERKLIEPAFEYVSHEQFKEHTKKAKAIIRTGEATPYANVILHAGVIF | not soluble
